Reference: patent US9144594B2, “Cathepsin L mediated diseases and associated methods and products” (University of Miami, priority 2005, dated 2015)

How the values were obtained:
[1] = tested on: LPS induced mouse proteinuria model; test: LPS induced mouse proteinuria model, protein in urine (prevention and reversal by dynamin gene delivery); assay type: in vivo; details: 2xLPS
Method: Next, it was examined whether gene transfer of dynR725A and dynL356Q, G358V was able to protect from LPS induced changes of podocyte FP and thus proteinuria (FIGS. 6A-B); (Table 2B). […] Whereas the application of wildtype dynamin was unable to protect from LPS induced podocyte FP effacement (data not shown) and proteinuria (0.63 mg/ml after 24 hours, p<0.05 and 1.18 mg/ml after 48 hours, p<0.04); table 2B, the co-administration of R725A together with LPS completely abolished the development of proteinuria after 24 hours (0.20 mg/ml). Podocyte FPs remained normal at this timepoint (FIG. 6B). The decline of R725A expression in podocytes was then associated with the development of proteinuria (1.25 mg/ml, 48 h). At this time point, there was noticeable podocyte FP effacement. The application of the cathepsin L resistant dynamin mutant L356Q, G358V together with LPS conferred a partial protection from proteinuria (0.47 mg/ml, P<0.05). This protection was associated with normal appearing podocyte FP (FIG. 6C). Although this protection was not as strong as the one provided by dynR725A, it was prolonged and was still present even after the second dose of LPS ([…], P<0.04). This observation argues that lower expression levels of dynL356Q, G358V are required to protect from LPS induced FP effacement but the presence of dynR725A has the most powerful protection.
Another set of experiments was carried out to study whether dynR725A and dynL356Q, G358V are also useful once there is already established podocyte damage and proteinuria (reversal experiments), (FIGS. 6C, D); (Table 2C). First LPS was injected in mice at 0 and 24 hours and the course of urinary protein loss was documented. On the peak phase of proteinuria at 48 hours after the first LPS injection, either delivery solution (control), dynR725A or dynL356Q, G358V dynamin mutants were transferred and the morphology of podocyte FP was analyzed and the degree of proteinuria was determined 10 hours later when there was strong expression of the transferred gene in podocytes. […] A dramatic reformation of podocyte FPs was also observed (FIG. 6C). The same observation was true for L356Q, G358V (FIG. 6D) which was able to reduce proteinuria from 1.20 mg/ml to 0.71 mg/ml). From the in vitro data it was determined that R725A starts to self assemble into higher order structures in the LPS setting which render dynamin assembly domain protected from cathepsin L cleavage. […] In addition, dominant activating dynR725A proves useful because despite causing podocyte damage in wildtype mice, it can resist cathepsin L cleavage by self assembly in the LPS setting and have strong activity by impairment in its GTP hydrolysis.
If dynamin is a target of CatL, then dynL356Q and dynR725A, which are resistant to CatL cleavage, might protect kidneys from LPS. In control mice, two injections of LPS led to FP effacement (FIG. 21C) and a large increase in proteinuria (FIG. 21E, Con).
Next it was examined whether dynL356Q and dynR725A can reverse already established proteinuria. LPS was injected into mice at 0 and 24 hours. At the peak of proteinuria at 48 hours, mice were injected with dynWT, dynL356Q, or dynR725A, and the degree of proteinuria was analyzed 12 hours post injection. […] The rescue could be achieved with both podocin and CMV-driven protein expression.
All animal studies were approved by the MGH Subcommittee for Research Animal Care. C57BL6 mice were obtained from Jackson Laboratory (Bar Harbor, Me.). CatL−/− mice are in a pure C57BL6 background (Nakagawa et al., Science 280, 450-453 (1998)). LPS induced mouse proteinuria model was utilized as previously described (Reiser et al., J Clin Invest 113, 1390-1397 (2004)). Rat PAN nephrosis model was induced by a single intravenous injection of PAN (180 mg/kg body wt; Sigma-Aldrich, St. Louis, Mo.) (Kim et al., Am J Physiol Renal Physiol 286, F922-935 (2004)). […]

[2] = tested on: mice; test: Protein in urine after in vivo gene delivery of dynamin mutants into healthy mice (Bradford); set-up: species or system mouse; details: Table 5 Basic Phenotype, podocin-driven vectors
Method: Next, the level of urinary protein loss following gene delivery of dynamin mutants was examined (Table 2). […] The expression of K44A was associated with severe proteinuria (1.18 mg/ml) at peak gene expression time of 10 hours post injection. The reduction in gene expression was paralleled by a reduction in proteinuria (0.77 mg/ml). Gene transfer of dynR725A caused an increase in proteinuria (0.58 mg/ml). Although this was not a significant increase, it is probable that it is a consequence of the partial podocyte FP effacement seen after gene transfer of dynR725A, and due to increase in the stress fibers formation observed in cultured podocytes.
To explore whether functional dynamin is required for the maintenance of FP morphology in healthy kidneys, it was examined whether expression of dominant negative dynK44A disrupts podocyte function. […] In contrast, podocin driven expression of dynK44A, the dynamin mutant that cannot bind GTP, caused FP effacement (FIG. 21B) and proteinuria (1.1±0.26 mg/ml) at the peak of gene expression […] after gene delivery (FIGS. 21D and 25C). […] In other words, tight regulation of the life-time of the GTP-bound form of dynamin appears to be required for normal FP morphology and ultrafiltration.
CatL plasmids encoding short and long CatL (Goulet et al., Biol Chem 387, 1285-1293 (2004)), Dyn1 plasmids (pcDNA-driven) or p2.5 Podocin-driven (Moeller et al., Genesis 35, 39-42 (2003)) were introduced into mice (n>10, each construct) using the TransIT in vivo gene delivery system according to the manufacturer's instruction (Mirus Bio Corporation, Madison, Wis.). 10 and 24 h after gene delivery, proteinuria was assessed by Multistix 8 SG strips (Bayer Corporation, Elkhart, Ind.), and Bradford protein assay (Sigma, Saint Louis, Mo.). From the same urines the protein creatinine ratio was determined with Albuwell M and Creatinine Companion protein creatinine ELISA kits (Exocell Inc., Philadelphia, Pa.).

Molecule	Protein in the urine ([1]; Table 5 Prevention, t = 0) [mg/mL]	Protein in the urine ([1]; Table 5 Prevention, t = 24 h)	Protein in the urine ([1]; Table 5 Prevention, t = 48 h)	Protein in the urine ([1]; Table 5 Reversal, t = 0) [mg/mL]	Protein in the urine ([1]; Table 5 Reversal, t = 48 h) [mg/mL]	Protein in the urine ([1]; Table 5 Reversal, t = 58 h)	Protein in the urine ([2]; t = 0) [mg/mL]	Protein in the urine ([2]; t = 14 h)	Protein in the urine ([2]; t = 24 h)
WT (CMV): CMV promoter-driven wild type dyn1 vector, gene delivery	0.28 ± 0.07	0.63 ± 0.12 (1.3.2 × 10^−3) mg/ml	1.18 ± 0.23 (7.6 × 10^−5) mg/ml	0.30 ± 0.11	0.17 ± 0.20	1.10 ± 0.18 mg/mL	–	–	–
R725A (CMV): CMV promoter-driven dynR725A vector, gene delivery (protein, UniProt Q05193 1-864, looked up, variant R725A, expressed from CMV vector, CMV promoter-driven dynR725A vector, gene delivery) Dynamin-1: MGNRGMEDLIPLVNRLQDAFSAIGQNADLDLPQIAVVGGQSAGKSSVLENFVGRDFLPRGSGIVTRRPLVLQLVNATTEYAEFLHCKGKKFTDFEEVRLEIEAETDRVTGTNKGISPVPINLRVYSPHVLNLTLVDLPGMTKVPVGDQPPDIEFQIRDMLMQFVTKENCLILAVSPANSDLANSDALKVAKEVDPQGQRTIGVITKLDLMDEGTDARDVLENKLLPLRRGYIGVVNRSQKDIDGKKDITAALAAERKFFLSHPSYRHLADRMGTPYLQKVLNQQLTNHIRDTLPGLRNKLQSQLLSIEKEVEEYKNFRPDDPARKTKALLQMVQQFAVDFEKRIEGSGDQIDTYELSGGARINRIFHERFPFELVKMEFDEKELRREISYAIKNIHGIRTGLFTPDMAFETIVKKQVKKIREPCLKCVDMVISELISTVRQCTKKLQQYPRLREEMERIVTTHIREREGRTKEQVMLLIDIELAYMNTNHEDFIGFANAQQRSNQMNKKKTSGNQDEILVIRKGWLTINNIGIMKGGSKEYWFVLTAENLSWYKDDEEKEKKYMLSVDNLKLRDVEKGFMSSKHIFALFNTEQRNVYKDYRQLELACETQEEVDSWKASFLRAGVYPERVGDKEKASETEENGSDSFMHSMDPQLERQVETIRNLVDSYMAIVNKTVRDLMPKTIMHLMINNTKEFIFSELLANLYSCGDQNTLMEESAEQAQRADEMLRMYHALKEALSIIGDINTTTVSTPMPPPVDDSWLQVQSVPAGRRSPTSSPTPQRRAPAVPPARPGSRGPAPGPPPAGSALGGAPPVPSRPGASPDPFGPPPQVPSRPNRAPPGVPSRSGQASPSRPESPRPPFDL	0.17 ± 0.08	0.20 ± 0.05 mg/mL	1.25 ± 0.29 (5.0 × 10^−6) mg/ml	0.28 ± 0.10	1.15 ± 0.17	0.38 ± 0.23 (1.8 × 10^−3) mg/ml	–	–	–
WT (podo): podocin promoter-driven wild type dyn1 vector, gene delivery (protein, UniProt Q05193 1-864, looked up, podocin promoter vector, podocin promoter-driven wild type dyn1 vector, gene delivery) Dynamin-1: MGNRGMEDLIPLVNRLQDAFSAIGQNADLDLPQIAVVGGQSAGKSSVLENFVGRDFLPRGSGIVTRRPLVLQLVNATTEYAEFLHCKGKKFTDFEEVRLEIEAETDRVTGTNKGISPVPINLRVYSPHVLNLTLVDLPGMTKVPVGDQPPDIEFQIRDMLMQFVTKENCLILAVSPANSDLANSDALKVAKEVDPQGQRTIGVITKLDLMDEGTDARDVLENKLLPLRRGYIGVVNRSQKDIDGKKDITAALAAERKFFLSHPSYRHLADRMGTPYLQKVLNQQLTNHIRDTLPGLRNKLQSQLLSIEKEVEEYKNFRPDDPARKTKALLQMVQQFAVDFEKRIEGSGDQIDTYELSGGARINRIFHERFPFELVKMEFDEKELRREISYAIKNIHGIRTGLFTPDMAFETIVKKQVKKIREPCLKCVDMVISELISTVRQCTKKLQQYPRLREEMERIVTTHIREREGRTKEQVMLLIDIELAYMNTNHEDFIGFANAQQRSNQMNKKKTSGNQDEILVIRKGWLTINNIGIMKGGSKEYWFVLTAENLSWYKDDEEKEKKYMLSVDNLKLRDVEKGFMSSKHIFALFNTEQRNVYKDYRQLELACETQEEVDSWKASFLRAGVYPERVGDKEKASETEENGSDSFMHSMDPQLERQVETIRNLVDSYMAIVNKTVRDLMPKTIMHLMINNTKEFIFSELLANLYSCGDQNTLMEESAEQAQRRDEMLRMYHALKEALSIIGDINTTTVSTPMPPPVDDSWLQVQSVPAGRRSPTSSPTPQRRAPAVPPARPGSRGPAPGPPPAGSALGGAPPVPSRPGASPDPFGPPPQVPSRPNRAPPGVPSRSGQASPSRPESPRPPFDL	–	–	–	–	–	–	0.28 ± 0.06	0.54 ± 0.13 (4.2 × 10^−3) mg/ml	0.46 ± 0.16 (4.6 × 10^−2) mg/ml
K44A (podo): podocin promoter-driven dynK44A vector, gene delivery (protein, UniProt Q05193 1-864, looked up, variant K44A, podocin promoter vector, podocin promoter-driven dynK44A vector, gene delivery) Dynamin-1: MGNRGMEDLIPLVNRLQDAFSAIGQNADLDLPQIAVVGGQSAGASSVLENFVGRDFLPRGSGIVTRRPLVLQLVNATTEYAEFLHCKGKKFTDFEEVRLEIEAETDRVTGTNKGISPVPINLRVYSPHVLNLTLVDLPGMTKVPVGDQPPDIEFQIRDMLMQFVTKENCLILAVSPANSDLANSDALKVAKEVDPQGQRTIGVITKLDLMDEGTDARDVLENKLLPLRRGYIGVVNRSQKDIDGKKDITAALAAERKFFLSHPSYRHLADRMGTPYLQKVLNQQLTNHIRDTLPGLRNKLQSQLLSIEKEVEEYKNFRPDDPARKTKALLQMVQQFAVDFEKRIEGSGDQIDTYELSGGARINRIFHERFPFELVKMEFDEKELRREISYAIKNIHGIRTGLFTPDMAFETIVKKQVKKIREPCLKCVDMVISELISTVRQCTKKLQQYPRLREEMERIVTTHIREREGRTKEQVMLLIDIELAYMNTNHEDFIGFANAQQRSNQMNKKKTSGNQDEILVIRKGWLTINNIGIMKGGSKEYWFVLTAENLSWYKDDEEKEKKYMLSVDNLKLRDVEKGFMSSKHIFALFNTEQRNVYKDYRQLELACETQEEVDSWKASFLRAGVYPERVGDKEKASETEENGSDSFMHSMDPQLERQVETIRNLVDSYMAIVNKTVRDLMPKTIMHLMINNTKEFIFSELLANLYSCGDQNTLMEESAEQAQRRDEMLRMYHALKEALSIIGDINTTTVSTPMPPPVDDSWLQVQSVPAGRRSPTSSPTPQRRAPAVPPARPGSRGPAPGPPPAGSALGGAPPVPSRPGASPDPFGPPPQVPSRPNRAPPGVPSRSGQASPSRPESPRPPFDL	–	–	–	–	–	–	0.24 ± 0.08	1.09 ± 0.27 (3.0 × 10^−5) mg/ml	0.42 ± 0.16 (5.2 × 10^−3) mg/ml
